Consider one molecule from patent publication US20060089302A1, “Hsp70-derived peptides and uses thereof in the diagnosis and treatment of autoimmune diseases” (priority 2002, published 2006).

“And” between values parts separate entries of the source, which are not always exact repeats. Identical values can stand only once.

For test [1], the system named is peripheral blood mononuclear cells (PBMC) / T-cells. Put plainly: T-cell proliferation assay (3H-Thymidine incorporation, stimulation index). It counts as cell-based, human. The following applies: for T-cell proliferative response, S.I., Mean ± SD: group mean. (Dividing cells build labelled thymidine or BrdU into new DNA.)
Test [2] has the same test system. The following applies: 25 newly diagnosed Type 1 Diabetes adult patients; Abulafia-Lapid et al. 1999; cited from earlier work.
Test [3] relates to serum IgG anti-hsp60, anti-hsp70, anti-hsp90, anti-tetanus toxoid. Put plainly: Determination of auto-antibodies (antibody capture ELISA on antigen-coated plates). The format is binding, human. The following applies: for IgG antibodies to the antigen in serum, Mean ± SD: group mean. On the procedure:
All of the serum samples that were collected were stored in aliquotes at −20° C. and thawed before each assay. Total human IgG anti-hsp60, anti-hsp70, and anti-hsp90, as well as anti-tetanus toxoid proteins were detected by the antibody capture-type enzyme immunoassay ELISA [Maggio, M. T. (1981) Enzyme Immunoassay, CRC Press, Boca Raton, USA]. 96-well micro titer plates (Dynatech) were coated with the protein according to the antibody being tested. Serum samples were distributed at dilutions in the range of 1:50 to 1:70 into the pre-coated wells for the protein detection assay. Thus, any IgG anti-hsp60, anti-hsp70, anti-hsp90, or anti-tetanus toxoid present should be bound by the immobilized peptide or protein. After washing off unbound material, a mouse monoclonal anti-human IgG antibody conjugated to alkaline phosphatase (AP) was added to the wells. After an additional washing step to remove any unbound anti-enzyme reagent, the AP substrate p-nitrophenyl phosphate (pNPP) solution was added. The intensity of the color developed was measured using an Anthos htll ELISA reader at λ=405 nm. The amount of antibody detected was represented as Units of Optical Density at λ=405 nm. Patients and control subjects were assayed in the same experiment.
The InStat 2.01 computer program was used for the statistical analysis. The results obtained from the samples of healthy individuals were used to determine the cutoff for each assay, which was established as the mean plus two standard deviations (SDs). […] The results were presented as the percentage of positive from the total tested group.
Levels of IgG antibodies to hsp60, hsp70, and hsp90 were measured in the sera of 20 Type 1 Diabetes children (P1-P5, P7-P21; Table 3A) and two control groups, 10 normoglycemic children (Table 3B) and 15 healthy adult blood donors (Table 3C). The level of the antibodies was scored as positive when it was greater than the cut-off level (cut-off levels were established based on the mean value of antibody levels from the normoglycemic children plus two standard deviations).
In general terms: An ELISA detects its analyte on a solid surface through an enzyme-linked reagent.

B1: hsp60: recombinant human hsp60 (StressGen, Canada), 60 kDa heat-shock protein (protein)
chain: AKDVKFGADARALMLQGVDLLADAVAVTMGPKGRTVIIEQSWGSPKVTKDGVTVAKSIDLKDKYKNIGAKLVQDVANNTNEEAGDGTTTATVLARSIAKEGFEKISKGANPVEIRRGVMLAVDAVIAELKKQSKPVTTPEEIAQVATISANGDKEIGNIISDAMKKVGRKGVITVKDGKTLNDELEIIEGMKFDRGYISPYFINTSKGQKCEFQDAYVLLSEKKISSIQSIVPALEIANAHRKPLVIIAEDVDGEALSTLVLNRLKVGLQVVAVKAPGFGDNRKNQLKDMAIATGGAVFGEEGLTLNLEDVQPHDLGKVGEVIVTKDDAMLLKGKGDKAQIEKRIQEIIEQLDVTTSEYEKEKLNERLAKLSDGVAVLKVGGTSDVEVNEKKDRVTDALNATRAAVEEGIVLGGGCALLRCIPALDSLTPANEDQKIGIEIIKRTLKIPAMTIAKNAGVEGSLIVEKIMQSSSEVGYDAMAGDFVNMVEKGIIDPTKVVRTALLDAAGVASLLTTAEVVVTEIPKEEKDPGMGAMGGMGGGMGGGMF
Regarding B1, the “T-cell proliferative response, Stimulation Index (S.I.)” value in test [1] stood at 1.25. The “T-cell proliferative response, S.I., Mean ± SD” value in test [1] (Healthy subjects) is 1.79±0.74 and 1.7 ± 0.72; in test [1] (Type 1 Diabetes adult patients), 1.22 ± 0.36; in test [1] (Type 1 Diabetes children), 3.6±2.6; in test [1] (Type 2 Diabetes patients) it was 1.7 ± 0.75. In test [1] (Type 1 Diabetes adult patients (Table 1D), tested after more than 12 weeks), the “T-cell response, in words” value is recorded as “not seen”. For the same molecule, the figures for the “Responding subjects (S.I.≥2)” value in test [1] (Type 1 Diabetes children) and in test [1] (healthy subjects / healthy blood donors) were 85% and 39%, respectively. The “Patients tested positive (proliferative response)” value in test [2] is given as 92%. In addition, the results for the “IgG antibodies to the antigen in serum, Mean ± SD” value in test [3] (Type 1 Diabetes children), in test [3] (healthy adult blood donors) and in test [3] (pediatric control serum donors) were 0.6 Units of Optical Density at λ=405 nm, 0.61 ± 0.12 Units of Optical Density at λ=405 nm and 0.45 ± 0.11 Units of Optical Density at λ=405 nm, respectively. Moreover, the “Positive (antibody level above cut-off)” value in test [3] (Type 1 diabetes children (n=20), cut-off = mean of normoglycemic children plus two SD) is 45%; in test [3] (Type 1 diabetes children (n=20), cut-off = mean of normoglycemic children plus two SD, listed as Hsp60), 45%; in test [3] (healthy adult blood donors (n=15)), 6%; in test [3] (healthy adult blood donors (n=15), listed as Hsp60), 6.6%; in test [3] (pediatric control serum donors / healthy children (n=10)) it was 10%; in test [3] (pediatric control serum donors / healthy children (n=10), listed as Hsp60) it was 10%.
